The target in the assay is integrin-αvβ1 (UniProt P06756 31-1048; P05556 21-798). In words: SPR.
Chain of integrin-αvβ1 (P06756 31-992, chain 1 of 2): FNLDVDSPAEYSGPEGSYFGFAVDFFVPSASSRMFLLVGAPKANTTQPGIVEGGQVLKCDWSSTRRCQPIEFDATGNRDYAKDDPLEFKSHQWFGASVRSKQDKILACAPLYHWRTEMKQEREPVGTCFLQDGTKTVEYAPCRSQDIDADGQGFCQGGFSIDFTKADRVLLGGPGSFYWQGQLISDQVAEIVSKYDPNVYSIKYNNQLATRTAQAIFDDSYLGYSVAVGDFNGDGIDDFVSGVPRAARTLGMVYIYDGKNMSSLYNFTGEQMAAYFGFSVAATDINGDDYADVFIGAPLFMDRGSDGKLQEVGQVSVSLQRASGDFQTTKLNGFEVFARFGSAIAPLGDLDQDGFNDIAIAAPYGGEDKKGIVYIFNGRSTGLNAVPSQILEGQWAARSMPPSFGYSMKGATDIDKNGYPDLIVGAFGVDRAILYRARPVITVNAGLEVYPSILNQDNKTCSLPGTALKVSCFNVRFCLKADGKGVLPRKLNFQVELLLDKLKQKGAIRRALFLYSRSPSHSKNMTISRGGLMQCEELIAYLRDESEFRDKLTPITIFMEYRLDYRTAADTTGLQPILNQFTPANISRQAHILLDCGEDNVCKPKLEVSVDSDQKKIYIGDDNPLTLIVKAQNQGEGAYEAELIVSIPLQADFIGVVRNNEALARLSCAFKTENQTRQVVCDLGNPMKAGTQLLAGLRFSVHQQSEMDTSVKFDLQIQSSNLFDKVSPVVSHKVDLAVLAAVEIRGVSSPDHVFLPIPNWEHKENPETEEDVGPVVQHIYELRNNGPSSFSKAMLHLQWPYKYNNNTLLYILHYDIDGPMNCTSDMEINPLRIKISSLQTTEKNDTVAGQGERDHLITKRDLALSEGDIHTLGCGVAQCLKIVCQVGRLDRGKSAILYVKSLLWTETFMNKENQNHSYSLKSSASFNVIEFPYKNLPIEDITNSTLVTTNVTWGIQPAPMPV
Chain of integrin-αvβ1 (P05556 21-728, chain 2 of 2): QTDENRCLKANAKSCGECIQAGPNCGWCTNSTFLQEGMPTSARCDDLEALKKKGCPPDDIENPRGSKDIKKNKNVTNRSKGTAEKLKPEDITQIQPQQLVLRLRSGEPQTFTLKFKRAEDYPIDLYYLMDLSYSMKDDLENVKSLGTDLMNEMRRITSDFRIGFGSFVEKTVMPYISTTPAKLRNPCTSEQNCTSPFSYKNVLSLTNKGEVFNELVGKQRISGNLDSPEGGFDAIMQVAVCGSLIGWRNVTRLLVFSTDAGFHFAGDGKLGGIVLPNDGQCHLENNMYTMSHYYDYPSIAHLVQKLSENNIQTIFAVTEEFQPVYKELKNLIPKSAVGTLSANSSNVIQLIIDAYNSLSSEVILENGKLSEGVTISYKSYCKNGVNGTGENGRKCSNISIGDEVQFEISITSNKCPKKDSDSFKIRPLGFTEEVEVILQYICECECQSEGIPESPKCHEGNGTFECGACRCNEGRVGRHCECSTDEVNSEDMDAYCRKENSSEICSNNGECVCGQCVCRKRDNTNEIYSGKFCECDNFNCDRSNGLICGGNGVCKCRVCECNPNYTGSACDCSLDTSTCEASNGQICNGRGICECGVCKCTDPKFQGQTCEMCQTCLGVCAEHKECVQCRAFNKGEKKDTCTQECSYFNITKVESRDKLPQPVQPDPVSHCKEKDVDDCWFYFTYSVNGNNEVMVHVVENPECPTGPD

B1: SDC4_(87-131) (peptide)
peptide: NHIPERAGSGSQVPTEPKKLEENEVIPKRISPVEESEDVSNKVSM
modifications: The limits and source of the SPR ligand are not printed. The soluble ectodomain heterodimer is assumed by convention from the UniProt extracellular topology. Alpha-V may be cleaved into heavy and light chains joined by a disulfide. Amine-coupled to a CM5 chip.
For the molecule B1, the Kd is 43.6 nM.

The values above are taken from PMC12313019 (2025).
